Changes are numbered by the printed parent chain. Names and notes keep the numbering of the source. Values belong to the molecule of their own block, whether it stands above or below them.
T1: GFP-BAF (full length BAF) (UniProt O75531 1-89)
T1 sequence (looked up): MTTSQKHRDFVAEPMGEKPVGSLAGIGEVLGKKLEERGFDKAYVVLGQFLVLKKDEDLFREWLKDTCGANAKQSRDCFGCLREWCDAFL

B1: Human wild-type lamin A/C fragment from amino acid 411 to amino acid 566 (LamIgF) (domain or fragment, UniProt P02545 411-566, looked up)
chain: GGGSVTKKRKLESTESRSSFSQHARTSGRVAVEEVDEEGKFVRLRNKSNEDQSMGNWQIKRQNGDDPLLTYRFPPKFTLKAGQVVTIWAAGAGATHSPPTDLVWKAQNTWGCGNSLRTALINSTGEEVAMRKLVRSVTVVEDDEDEDGDDLLHHHH
B2: Human WT emerin fragment from amino acid 67 to amino acid 221 (EmC) (domain or fragment, UniProt P50402 67-221, looked up)
chain: TRGDADMYDLPKKEDALLYQSKGYNDDYYEESYFTTRTYGEPESAGPSRAVRQSVTSFPDADAFHHQVHDDDLLSSSEEECKDRERPMYGRDSAYQSITHYRPVSASRSSLDLSYYPTSSSTSFMSSSSSSSSWLTRRAIRPENRAPGAGLGQDR
B3: FLAG-mature lamin A (aa 1 to aa 646) A529V (natural protein, UniProt P02545 1-646, looked up)
chain: METPSQRRATRSGAQASSTPLSPTRITRLQEKEDLQELNDRLAVYIDRVRSLETENAGLRLRITESEEVVSREVSGIKAAYEAELGDARKTLDSVAKERARLQLELSKVREEFKELKARNTKKEGDLIAAQARLKDLEALLNSKEAALSTALSEKRTLEGELHDLRGQVAKLEAALGEAKKQLQDEMLRRVDAENRLQTMKEELDFQKNIYSEELRETKRRHETRLVEIDNGKQREFESRLADALQELRAQHEDQVEQYKKELEKTYSAKLDNARQSAERNSNLVGAAHEELQQSRIRIDSLSAQLSQLQKQLAAKEAKLRDLEDSLARERDTSRRLLAEKEREMAEMRARMQQQLDEYQELLDIKLALDMEIHAYRKLLEGEEERLRLSPSPTSQRSRGRASSHSSQTQGGGSVTKKRKLESTESRSSFSQHARTSGRVAVEEVDEEGKFVRLRNKSNEDQSMGNWQIKRQNGDDPLLTYRFPPKFTLKAGQVVTIWAAGAGATHSPPTDLVWKAQNTWGCGNSLRTVLINSTGEEVAMRKLVRSVTVVEDDEDEDGDDLLHHHHGSHCSSSGDPAEYNLRSRTVLCGTCGQPADKASASGSGAQVGGPISSGSSASSVTVTRSYRSVGGSGGGSFGDNLVTRSY
B4: FLAG-mature lamin A (aa 1 to aa 646) R435C (natural protein, UniProt P02545 1-646, looked up)
chain: B3 chain with R435C, V529A
B5: FLAG-mature lamin A (aa 1 to aa 646) K542N (natural protein, UniProt P02545 1-646, looked up)
chain: B3 chain with V529A, K542N
B6: FLAG-mature lamin A (aa 1 to aa 646) R527H (natural protein, UniProt P02545 1-646, looked up)
chain: B3 chain with R527H, V529A
B7: Human WT emerin fragment from amino acid 1 to amino acid 187 (EmN) (domain or fragment, UniProt P50402 1-187, looked up)
chain: MDNYADLSDTELTTLLRRYNIPHGPVVGSTRRLYEKKIFEYETQRRRLSPPSSSAASSYSFSDLNSTRGDADMYDLPKKEDALLYQSKGYNDDYYEESYFTTRTYGEPESAGPSRAVRQSVTSFPDADAFHHQVHDDDLLSSSEEECKDRERPMYGRDSAYQSITHYRPVSASRSSLDLSYYPTSSS

Key:
[1] = biological target: Human Barrier-to-Autointegration Factor (BAF) with all cysteines mutated in alanine (human) (UniProt O75531); test: crystal structure
[2] = biological target: Human Barrier-to-Autointegration Factor (BAF) with all cysteines mutated in alanine (human) (UniProt O75531); test: ITC
[3] = biological target: B7; test: NMR titration
[4] = biological target: the molecule itself; test: negative-staining electron microscopy
[5] = biological target: T1, GFP-BAF (full length BAF); test: proximity ligation
[6] = biological target: Human Barrier-to-Autointegration Factor (BAF) with all cysteines mutated in alanine (human) (UniProt O75531); test: ITC; remark: listed apart in the source

- stoichiometry N [1]: 2
Molecule: Human Barrier-to-Autointegration Factor (BAF) with all cysteines mutated in alanine (from UniProt O75531 2-76) (natural protein)

- fold decrease of affinity against LamIgF WT [2]: 5 fold
Molecule: LamIgF mutant R471C (from UniProt P02545 411-566) (domain or fragment)

- fold decrease of affinity against LamIgF WT [2]: 5 fold
Molecule: LamIgF mutant A529V (from UniProt P02545 411-566) (domain or fragment)

Molecule: B1
- binding result [3]: binds

Molecule: B2
- binding result [4]: binds

Molecule: B3
- PLA signals as percent of WT lamin A [5]: ~50 % of WT

Molecule: B4
- PLA signals as percent of WT lamin A [5]: ~50 % of WT

Molecule: B5
- PLA signals as percent of WT lamin A [5]: ~50 % of WT

Molecule: B6
- PLA signals as percent of WT lamin A [5]: ~50 % of WT

Molecule: B7
- Kd [6]: 700 nM
- binding result [4]: binds

Reference: article PMC6212729 (Nucleic Acids Research, 2018)
